Measurements as given in the supplement of paper PMC9112550, “Optimization of the antimicrobial peptide Bac7 by deep mutational scanning” (BMC Biology, 2022).

Each sequence was assayed on Escherichia coli TOP10 (assay: shrunken log2 fold change of peptide-encoding DNA abundance (4.5 h post-induction vs induction); higher = less antimicrobial activity (less host growth inhibition)). Conditions: time post-induction: 4.5 h; library: site-saturation at positions 5, 18, 19, 20.
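Further: peptides expressed intracellularly from a pBAD plasmid library in pooled LB shake-flask culture, induced with 0.3% L-arabinose, DNA abundance read by NGS, three biological replicates, DESeq2 with apeglm shrinkage.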

| Sequence | shrunken log2 fold change |
| --- | --- |
| RRIRLRPPRLPRPRPRPEDGPRP | -0.0468 |
| RRIRYRPPRLPRPRPRPQLPPRP | -0.0333 |
| RRIRHRPPRLPRPRPRPMQQPRP | -0.174 |
| RRIRIRPPRLPRPRPRPMCAPRP | -0.127 |
| RRIRWRPPRLPRPRPRPWWCPRP | -0.0237 |
| RRIRDRPPRLPRPRPRPRTFPRP | -0.0632 |
| RRIRWRPPRLPRPRPRPMGTPRP | -0.00133 |
| RRIRQRPPRLPRPRPRPEPGPRP | 0.485 |
| RRIRVRPPRLPRPRPRPTKVPRP | -0.341 |
| RRIRPRPPRLPRPRPRPVYIPRP | -0.684 |
| RRIRRRPPRLPRPRPRPPKNPRP | 0.671 |
| RRIRDRPPRLPRPRPRPGYNPRP | -0.0937 |
| RRIRGRPPRLPRPRPRPDPVPRP | 0.951 |
| RRIRERPPRLPRPRPRPQRYPRP | -0.222 |
| RRIRFRPPRLPRPRPRPCRGPRP | -0.106 |
| RRIRMRPPRLPRPRPRPYPVPRP | -0.237 |
| RRIRKRPPRLPRPRPRPTVCPRP | 0.765 |
| RRIRVRPPRLPRPRPRPDWVPRP | -0.0925 |
| RRIRTRPPRLPRPRPRPKVPPRP | -0.0154 |
| RRIRERPPRLPRPRPRPFMCPRP | -0.158 |
| RRIRCRPPRLPRPRPRPGHFPRP | -0.217 |
| RRIRHRPPRLPRPRPRPIEPPRP | -0.133 |
| RRIRNRPPRLPRPRPRPTNLPRP | -0.0193 |
| RRIRTRPPRLPRPRPRPCMYPRP | -0.183 |
| RRIRFRPPRLPRPRPRPFIGPRP | -0.362 |
| RRIRPRPPRLPRPRPRPVAVPRP | 0.143 |
| RRIRYRPPRLPRPRPRPWWCPRP | -0.139 |
| RRIRIRPPRLPRPRPRPNEIPRP | -0.191 |
| RRIRERPPRLPRPRPRPRGVPRP | 0.309 |
| RRIRKRPPRLPRPRPRPYQGPRP | -0.231 |
